# From patent US20220257733A1, “ANTIGENIC POLYPEPTIDES AND METHODS OF USE THEREOF” (AGENUS INC., priority 2019, published 2022)
# Non-standard residues stand in square brackets, D forms with d. No end group written: not given here. pT = C[C@@H](OP(=O)(O)O)[C@H](N)C(=O)O; pS = N[C@@H](COP(=O)(O)O)C(=O)O
# B1: SRKsFVFEL (peptide)
# peptide: SRK[pS]FVFEL
# notes: predicted HLA-B*08:01 (not among the HLAs tested)
# B2: YRLsPEPTPL (peptide)
# peptide: YRL[pS]PEPTPL
# notes: predicted HLA-C*07:02 (not tested on it)
# B3: HRVsVILKL (peptide)
# peptide: HRV[pS]VILKL
# notes: predicted HLA-B*14:01 (not among the HLAs tested)
# Assays:
# HLA A*02:01 = HLA A*02:01 (Homo sapiens, UniProt P04439, D140Y/D185E/D98H/E176V/E277Q/G131W/G231S/I119V/I121R/I166T/I218V/L300P/L318F/N151K/N90K/P208A/P217A/Q86G/Q94H/R138H/R169H/T345S); experiment: AlphaScreen assay of peptide binding to HLA A*02:01; set-up: key to Kd in nM A*02:01: NT means that binding was not tested; NB means no binding was detected; LB stands for low binding and indicates that while some binding was observed, it was below the level that would allow accurate calculation of a Kd; conditions: biotinylated HLA A*02:01 with excess β2m, Michaelis-Menten fit
# Protocol: (§1) An AlphaScreen® assay was used to evaluate the binding of peptides to HLA molecules. Donor beads conjugated with streptavidin, and acceptor beads conjugated with the anti-human HLA class I antibody W6/32, were used to assess peptide binding. Biotinylated HLAs (A*02:01, B*07:02, C*07:01, or C*07:02) were mixed with a fixed excess of β2m and the mixtures added to each well of a 384-well microplate. Serial dilutions of the synthesized phosphopeptides were added to the wells, and the resultant HLA/β2/peptide mixtures were incubated overnight at 18° C. W6/32 conjugated acceptor beads were subsequently added to the wells, and the mixture was incubated for 1 hour at 21° C. Streptavidin conjugated donor beads were then added to the wells, and the mixture was incubated for a further 1 hour at 21° C.
# (§2) The microplate was read using the PerkinElmer® plate reader, and data were plotted using the Michaelis-Menten equation to determine the Kd for each phosphopeptide.
# Table 5 lists the Kd of each of the selected phosphopeptides to the indicated HLAs (A*02:01, B*07:02, C*07:01, or C*07:02). NT means that binding was not tested. NB means no binding was detected. […] In each case, the phosphopeptides bound as indicated below.
# [1] = target: T1, Biotinylated HLA-A*02:01 with β2m (human, biotinylated (site not stated)); experiment: AlphaScreen; biotinylated HLA + excess β2m + peptide dilutions, W6/32 acceptor beads, streptavidin donor beads; Michaelis-Menten fit
# T1 construct: MHC class I heavy chain mixed with excess β2m
# Protocol: as §1, §2
# [2] = target: T1, Biotinylated HLA-A*02:01 with β2m; experiment: AlphaScreen; biotinylated HLA + excess β2m + peptide dilutions, W6/32 acceptor beads, streptavidin donor beads
# Protocol: as §1, §2
molecule,measurement,setting,value
CC(C)[C@H](NC(=O)CNC(=O)[C@@H]1CCCN1C(=O)[C@@H]1CCCN1C(=O)[C@@H](NC(=O)[C@H](CCCNC(=N)N)NC(=O)[C@@H]1CCCN1C(=O)[C@H](C)N)[C@@H](C)OP(=O)(O)O)C(=O)N[C@H](C(=O)N[C@@H](Cc1ccccc1)C(=O)O)[C@@H](C)O [compound 120],Kd in nM A*02:01,HLA A*02:01,NB
CC[C@H](C)[C@H](NC(=O)[C@H](CO)NC(=O)[C@H](CCCNC(=N)N)NC(=O)[C@H](COP(=O)(O)O)NC(=O)[C@H](CC(C)C)NC(=O)[C@@H](N)Cc1ccccc1)C(=O)N1CCC[C@H]1C(=O)N[C@@H](CO)C(=O)N[C@@H](CC(C)C)C(=O)O [compound 228],Kd,HLA A*02:01,641 nM
CC(C)C[C@H](NC(=O)[C@H](CCC(=O)O)NC(=O)[C@H](CCC(=O)O)NC(=O)[C@H](CC(C)C)NC(=O)[C@H](COP(=O)(O)O)NC(=O)CNC(=O)[C@H](Cc1c[nH]cn1)NC(=O)[C@H](Cc1ccccc1)NC(=O)[C@H](CC(C)C)NC(=O)[C@@H](N)CCCCN)C(=O)O [compound 424],Kd,HLA A*02:01,203 nM
CC[C@H](C)[C@H](NC(=O)[C@H](Cc1ccc(O)cc1)NC(=O)[C@H](COP(=O)(O)O)NC(=O)[C@H](CC(C)C)NC(=O)[C@H](CC(C)C)NC(=O)[C@@H](N)CCCCN)C(=O)N[C@@H](CCC(N)=O)C(=O)N[C@@H](CCCNC(=N)N)C(=O)N[C@@H](CC(C)C)C(=O)O [compound 433],Kd,HLA A*02:01,188 nM
CSCC[C@H](NC(=O)[C@H](CC(C)C)NC(=O)[C@@H](N)CCC(N)=O)C(=O)N[C@H](C(=O)N[C@@H](CC(C)C)C(=O)N[C@@H](CCC(=O)O)C(=O)N[C@@H](CC(N)=O)C(=O)N[C@@H](CCCCN)C(=O)N[C@@H](CC(C)C)C(=O)O)[C@@H](C)OP(=O)(O)O [compound 654],Kd,HLA A*02:01,231 nM
CC(C)C[C@H](NC(=O)[C@@H](NC(=O)[C@H](CC(C)C)NC(=O)[C@@H]1CCCN1C(=O)[C@H](COP(=O)(O)O)NC(=O)[C@@H]1CCCN1C(=O)[C@@H](NC(=O)[C@H](CCCNC(=N)N)NC(=O)[C@@H]1CCCN1C(=O)[C@@H](N)CCC(N)=O)[C@@H](C)O)C(C)C)C(=O)O [compound 657],Kd in nM A*02:01,HLA A*02:01,NB
CC(C)C[C@H](NC(=O)[C@H](COP(=O)(O)O)NC(=O)[C@H](CCCNC(=N)N)NC(=O)[C@H](CCCCN)NC(=O)[C@H](CO)NC(=O)[C@H](CC(C)C)NC(=O)[C@H](Cc1ccccc1)NC(=O)[C@@H]1CCCN1C(=O)[C@@H](N)CO)C(=O)O [compound 1157],Kd in nM A*02:01,HLA A*02:01,NB
CC[C@H](C)[C@H](NC(=O)[C@@H]1CCCN1C(=O)[C@H](COP(=O)(O)O)NC(=O)[C@H](CCCNC(=N)N)NC(=O)[C@@H]1CCCN1C(=O)[C@@H](N)CO)C(=O)N[C@@H](CO)C(=O)N1CCC[C@H]1C(=O)N[C@@H](CCC(=O)O)C(=O)N[C@@H](CC(C)C)C(=O)O [compound 1179],Kd in nM A*02:01,HLA A*02:01,NB
FL[pS]RSIPSL (predicted HLA-A*02:01) [FLsRSIPSL],Kd,[1],641 nM
SPFLSKR[pS]L (predicted HLA-B*07:02) [SPFLSKRsL],binding result,[2],no binding
APR[pT]PPGVTF (predicted HLA-B*07:02) [APRtPPGVTF],binding result,[2],no binding
B1,binding result,[2],no binding
KLFHG[pS]LEEL (predicted HLA-A*02:01) [KLFHGsLEEL],Kd,[1],203 nM
SPR[pS]PISPEL (predicted HLA-B*07:02) [SPRsPISPEL],binding result,[2],no binding
B2,binding result,[2],no binding
B3,binding result,[2],no binding
QLM[pT]LENKL (predicted HLA-A*02:01) [QLMtLENKL],Kd,[1],231 nM
KLL[pS]YIQRL (predicted HLA-A*02:01) [KLLsYIQRL],Kd,[1],188 nM
